Laboratory results reported in article PMC10679996.

Molecular target: HSC70 (UniProt P11142)
Experiment: anti-FLAG co-IP, Western blot
Conditions: reference: wild type; sites T290

PD-L1 (from UniProt Q9NZQ7) T290A
binding against the reference: weaker
